Assay [1] concerns the target T1, human TL1A (human, UniProt O95150 72-251, limits assumed).
T1 construct: also called huTL1A; TNFSF15
T1 sequence (looked up): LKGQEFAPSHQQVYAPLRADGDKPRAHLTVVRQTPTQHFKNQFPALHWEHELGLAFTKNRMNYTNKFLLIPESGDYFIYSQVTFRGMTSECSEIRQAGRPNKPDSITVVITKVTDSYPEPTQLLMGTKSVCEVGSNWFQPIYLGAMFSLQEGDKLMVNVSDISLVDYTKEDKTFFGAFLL
The assay can be described thus: hybridoma screening after immunisation with recombinant human TL1A soluble protein; member named through Tables A, C and D.

Assay [2] addresses T2, human TL1A (human, UniProt O95150 72-251, limits assumed).
T2 sequence (looked up): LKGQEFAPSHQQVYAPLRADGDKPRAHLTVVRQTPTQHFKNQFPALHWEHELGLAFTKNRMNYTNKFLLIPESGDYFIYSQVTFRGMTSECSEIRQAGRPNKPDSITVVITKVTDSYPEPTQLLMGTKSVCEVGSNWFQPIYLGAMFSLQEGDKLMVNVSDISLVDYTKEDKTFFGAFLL
The assay can be described thus: cell-based or functional assay.

For assay [3], the target named is T2, human TL1A. The assay can be described thus: SPR, mAb captured on anti-human Fc chip, TL1A injected, 1:1 model. Background: In SPR one partner is held on a chip, and binding of the other changes the refractive index at the surface.
Method: On rate, off rate and equilibrium dissociation constant were calculated using 1:1 binding model on BIAevaluation software.

B1: 92E5 (antibody, human IgG2, kappa, V domains shown)
VH: EVHLLESGGGLVQPGGSLRLSCAASGFTFSSYAMSWVRQVPGKGLEWVSGISGRGGSTYYADSVKGRFTISRDNSKNTLYLQMDSLRAEDTAVYNCAIEVAGAFDIWGQGTMVTVSS
VL: DIQMIQSPSSLSASVGDRVTITCRASQSISHYLNWYQQKPGKAPKFLIYAASSLQSGVPSRFSGSGSGTDFTLTISSLQPEDFATYYCQQSFSSITFGQGTRLEIKR
notes: also called iPS 427559
In the case of B1, the binding result in assay [1] is reported as “binds”.

B2: 89H9 (antibody, human IgG2, kappa, V domains shown)
VH: EVHLLESGGGLVQPGGSLRLSCAASGFTFSSYAMSWVRQAPGKGLEWVSGISGGGGSTYYADSVKGRFTISRDNSKNTLYLQMNSLRAENTAVYYCAIEMAGAFDIWGQGTMVTVSS
VL: DIQMIQSPSSLSASVGDSVTITCRASQSISYYLNWYQQKPGKAPKFLIYAASSLQSGVPSRFSGSGSGTDFTLTISSLQPEDFATYYCQQSYSSITFGQGTRLEIKR
notes: also called iPS 427509
As to B2, the binding result in assay [1] is “binds”.

B3: 91G8 (antibody, human IgG2, kappa, V domains shown)
VH: EVQLLESGGGLVQPGGSLRLSCVASGFTFSSYAMSWVRQAPGKGLEWVSGISGSGGSRYYADSVKGRFTISRDNSKNTLYLQMNSLRAEDTAVYYCAIEVAGAFDIWGQGTMVTVSS
VL: DIQMIQSPSSLSASVGDRVTITCRASQSISSYLNWYQQKPGKAPKFLIYAASSLQSGVPSRFSGSGSGTDFTLTISSLQPEDFATYYCQQSFSTITFGQGTRLEIKR
notes: also called iPS 427524
For the molecule B3, the binding result in assay [1] is “binds”.

B4: 54E5 (antibody, human IgG2, kappa, V domains shown)
VH: QVQLVESGGGVVQPGRSLRLSCAASGFTFSTYGMHWVRQAPGKGLEWVAVIWYDGSNKDYADSVKGRFTVSRDNSRDTLYLQMNSLRAEDTAVYYCAREERDSYYHYGMDVWGQGTTVTVSS
VL: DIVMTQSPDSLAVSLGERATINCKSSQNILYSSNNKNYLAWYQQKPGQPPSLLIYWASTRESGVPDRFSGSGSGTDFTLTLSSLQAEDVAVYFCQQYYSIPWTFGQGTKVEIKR
notes: also called iPS 427576
On to B4, for which the binding result in assay [1] was “binds”.

B5: 56E1 (antibody, human IgG2, kappa, V domains shown)
VH: QVQLVESGGGVVQPGRSLRLSCAASGFIFSSYGMHWVRQAPGKGLEWVAVIWYDGSNKDYADSVKGRFTVSRDNSRDTLYLQMNSLRAEDTAVYYCAREERDSYYHYGMDVWGQGTTVTVSS
VL: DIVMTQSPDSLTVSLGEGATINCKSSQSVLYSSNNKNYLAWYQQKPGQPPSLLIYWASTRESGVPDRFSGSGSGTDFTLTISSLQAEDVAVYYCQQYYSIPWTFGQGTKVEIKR
notes: also called iPS 427554
Regarding B5, the binding result in assay [1] is “binds”.

B6: 77D12 (antibody, human IgG2, lambda, V domains shown)
VH: QVQLVQSGAEVKKPGASVRVSCKASGYTFTGFYMHWVRQAPGQGLEWMGWINPDSGGTNYAQKFQGRVTMTRDTSISTAYMELSRLRSDDTAVYYCAREGIAVALTYWGQGTLVTVSS
VL: QSVLTQPPSASGTPGQRVTISCSESNSDIGTNAVNWYQQFPGTAPKFLIYSNNKRPSGVPDRFSGSKSGTSASLAISGLQSEDEADYYCATWDDNLNGPLFGGGTKLTVLG
notes: also called iPS 427549
Consider B6, for which, in assay [1], the binding result is on record as “binds”.

B7: 60G11 (antibody, human IgG2, lambda, V domains shown)
VL: QSVLTQPPSVSGAPGQRVTISCTGSGSNIGAGYDVHWYQQLPGTAPKLLIYGNSHRPSGIPDRFSGSKSGTSASLAITGLQAEDEADYYCQSYDSSLSGYVFGTGTKVTVLG
V domain: EVQLLESGGGLVQPGGSLRLSCAASGFTFSNYAMNWVRQAPGKGLEWVSVISGRGGSTYYADSVKGRFTISRDNSRNTLYLQMNSLRAEDTAIYYCAKDGYSSAWFFDYWGQGTLITVSS
notes: also called iPS 427493
For the molecule B7, in assay [1], the binding result is given as “binds”.

B8: 58G5 (antibody, human IgG2, lambda, V domains shown)
VH: EVQLLESGGGLVQPGGSLRLSCAASGFTFSNYAMSWVRQAPGKGLQWVSVISGRGGSTYYADSVKGRFTISRDNSKNTLYLQMNSLRAEDTAVYYCAKDGYSSAWYFDYWGQGTLVTVSS
VL: QSVLTQPPSVSGAPGQRVTISCTGSSSNIGAGYDVHWYQQLPGTAPKLLIYGNSHRPSGVPDRFSGSKSGTSASLAITGLQAEDEADYYCQSYDSSLSGYVFGTGTKVTVLG
notes: also called iPS 427539
As to B8, the binding result in assay [1] is listed as “binds”.

B9: 92D3 (antibody, human IgG2, kappa, V domains shown)
VH: QVQLVQSGAEVKKPGASVQVSCKASGYTFTGYYMHWIRQAPGQGLEWLGWIIPNSGGTNYAQKFQGRVTMTRDTSISTAYMELSRLRSDDTAVYYCATGSSWEGFDYWGQGTLVTVSS
VL: DIQMTQSPSSLSASVGDRVTITCRASQSISSYLNWYQQKPGTAPKFLIYGASRLQSGVPSRFSGSGSGTDFTLTISSLQPEDFATYYCQQSDTTPITFGQGTRLEIKR
notes: also called iPS 427564
Turning to B9, in assay [1], the binding result is reported as “binds”.

B10: 91F10_LC2 (antibody, human IgG2, kappa, V domains shown)
VH: QGQLVQSGAEVKKPGASVKVSCQASGYTFTAYYMHWVRQAPGQGLEWMGWINPNSGGTNYAQKFRGRVTMTRDTSISTAYMELSRLRSDDTAVYYCATGGSWEGFDYWGQGTLVTVSS
VL: DIQMTQSPSSLSASVGDRVTITCRASQSISSYLNWYQQKPGKAPKFLIYAASRLQSGVPSRFSGSGSGTDFTLTISSLQPEDFATYYCQQSDSTPITFGQGTRLEIKR
notes: also called iPS 427572
Turning to B10, the binding result in assay [1] was “binds”.

B11: anti-TL1A mAb 9C8 (antibody, human IgG1, kappa, N297G, V domains shown)
VH: QVQLQESGPGLVKPSETLSLTCTVSGGSISSYFWSWIRQPPGKGLEWIGYIYYSGNTKYNPSLKSRVTISIDTSKNQFSLKLSSVTAADTAVYYCARETGSYYGFDYWGQGTLVTVSS
VL: DIQMTQSPSSLSASVGDRVTITCRASQSINNYLNWYQQRPGKAPKLLIYAASSLQSGVPSRFSGSGSGTDFTLTISSLQPGDFATYYCQQSYSTPRTFGQGTKLEIKR
notes: also called PL-39116; iPS 285412
As a reminder, the Kd is the free concentration of one partner at which half of the binding sites on the other are occupied at equilibrium, for simple one-to-one binding. A higher Kd goes with lower affinity. Consider B11, for which, in assay [2], the “NF-kB IC50 nM, huTL1A (0.2 nM)” value worked out at 0.131 nM. The same molecule gave an equilibrium dissociation constant (Kd) in assay [3] of 0.34 nM.

B12: 76A4 (antibody, human IgG2, kappa, V domains shown)
VH: QVQLQQSGPGLVKPSQTLSLTCAISGDSVSSNSATWNWIRQSPSRGLEWLGRTYYRSKLYNDYAVSVKSRITINPDTSKNQFSLQLNSVTPEDTAVYYCAREVVAGPRWFDPWGQGTLVTVSS
VL: DIQMTQSPSSLSASVGDRVTITCRASQSVTSYLNWYQQKPGKAPKLLIYTASSLQSGIPSRFSGSGSGTDFTLTISSLQPEDFATYFCQQSYSTPRSFGQGTKLEIKR
notes: also called iPS 427529
In the case of B12, the binding result in assay [1] is listed as “binds”.

B13: 73C2 (antibody, human IgG2, kappa, V domains shown)
VH: QVQLQQSGPGLVKPSQTLSLTCAISGDSVSSSSATWNWIRQSPSRGLEWLGRTYQRSKWNNDYAVSVKSRITINPDTSRNQFSLQLNSVTPEDTAVYYCAREVVAGPRWFDPWGQGTLVTVSS
VL: DIQMTQSPSSLSASVGDRVTITCRASQSFSSYLNWYQQKPGKAPELLIYAASSLQSGVPSRFSGSGSGTDFTLTISSLQPEDFASYFCQQSYSTPRSFGQGTKLEIKR
notes: also called iPS 427544
Regarding B13, the binding result in assay [1] was “binds”.

B14: anti-TL1A mAb 2G11 (antibody, human IgG1, kappa, N297G, V domains shown)
VH: QVQLQESGPGLVKPSETLSLTCTVSGGSISSYFWSWIRQPPGKGLEWIGYIYYSGSTNYNPSLKSRVTMSIDTSKNQFSLKLSSVTAADTAVYYCAREIGSYYGFDYWGQGALVTVSS
VL: DIQMTQSPSSLSASVGDRVTITCRASQSINNYLNWYQQKPGIAPKLLIYATSSLQSGVPSRFSGSGSGTDFSLTISSLQPEDFATYFCQQSYSTPRTFGQGTKVEIKR
notes: also called iPS 285396
For the molecule B14, the “NF-kB IC50 nM, huTL1A (0.2 nM)” value in assay [2] turned out to be 0.223 nM. This molecule also came in with a dissociation constant Kd in assay [3] of 1.1 nM.

B15: 88H9 (antibody, human IgG2, kappa, V domains shown)
VH: QVQLVESGAGVVQPGRSLRLSCAASGFTFSSYGMHWVRQAPGMGLEWVAVIWFDGSNEYYADSVKGRFTISRDNSKNTLYLQMNSLRAEDTAVYYCARERWFGELLDYWGQGTLVTVSS
VL: DIQMTQSPSSLSASVGDRVTITCRASQGIRNDLGWYQEKPGKAPKRLIYAASGLQGGDPSRFSGSGSGTEFTLTISSLQPEDFATYYCLQHNSYPTWTFGQGTKVEIKR
notes: also called iPS 427485
In the case of B15, the binding result in assay [1] is listed as “binds”.

B16: 91D7 (antibody, human IgG2, kappa, V domains shown)
VH: QVQLQQWGAGLLKPSETLSLTCAVYGGSFSGYYWSWIRQPPGKGLEWIGEINPVGRTNYKPSLKSRVTISVDTSKNQFSLKLSSVTAADTALYYCARDNGWHYAFDIWGQGTMVTVSS
VL: DIQMTQSPSSLSASVGDRVTITCRASQNISSYLNWYQQRPGKAPNLLLFTASSLQSGVPSRFSGSGSGTDFTLTINSLQPEDFATYYCQQSYSNPPESSFGQGTKLEIKR
notes: also called iPS 427514
Regarding B16, the binding result in assay [1] is listed as “binds”.

B17: 87H11 (antibody, human IgG2, kappa, V domains shown)
VH: QEQLQQWGAGLLKPSETLSLTCAVYGGSFSGYYWSWIRQPPGKGLEWIGEINHSGRTNYNPSLKSRVTISVDTSKNQFSLKLSSVTAADTAVYYCARDSGWHFSFDIWDQGTMVTVSS
VL: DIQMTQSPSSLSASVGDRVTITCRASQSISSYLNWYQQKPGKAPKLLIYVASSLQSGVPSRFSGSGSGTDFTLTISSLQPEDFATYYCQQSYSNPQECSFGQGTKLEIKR
notes: also called iPS 427534
Regarding B17, the binding result in assay [1] is “binds”.

B18: 57A8 (antibody, V domains shown)
VH: EIQLLESGGGLVQPGGSLRLSCVASGFTFSSYVMSWVRQAPGKGLEWVSVISGSGGSTYYADSVKGRFTISRDNSKTTLYLQMNSLRAEDTAVYYCAKGGTNYYYYYSGMDVWGQGTTVTVSS
VL: QSVLTQPPSVSGAPGQRVTISCTGSSSNIGAGYNVHWYQQLPGTAPKLLIYGNNNRPSGVPDRFSGSKSGTSASLAITGLQTEDEADYYCQSYDSSLSGWVFGGGTKLTVL
notes: also called iPS 427519
For the molecule B18, in assay [1], the binding result was “binds”.

B19: 53D3 (antibody, human IgG2, kappa, V domains shown)
VH: EVQLVESGGGLVKPGGSLRLSCAASEFTFSTYYMSWVRQAPGKGLEWVSSISSSSSFIYYADSVKGRFTISRDNAKNSLYLQMNSLRAEDTAVYYCARDRIAAPGTYYYYGMDVWGQGTTVTVSS
VL: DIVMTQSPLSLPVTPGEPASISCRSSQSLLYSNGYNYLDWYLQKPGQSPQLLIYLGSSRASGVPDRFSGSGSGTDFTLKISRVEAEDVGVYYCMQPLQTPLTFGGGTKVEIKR
notes: also called iPS 427504
B19: in assay [1], the binding result is “binds”.

B20: 23B3 VH3 (antibody, human IgG1, kappa, N297G, V domains shown)
VH: EVQLLESGGGLVQPGGSLRLSCAISGDSVSTNSVAWNWIRQAPGKGLEWVSRTYYRSKWYNDYAVSVKGRFTISPDTSKNTFYLQMNSLRAEDTAVYYCAREDGDSYYRYGMDVWGQGTTVTVSS
VL: DIQMTQSPSSLSASVGDRVTITCRSSQSVLYSSNNKNYLVWYQQKPGKVPKLLIYWASTRESGVPSRFSGSGSGTDFTLTISSLQPEDFATYYCQQYYKTPLTFGGGTKVEIKR
notes: also called 23B3 HC3; iPS 325336
In the case of B20, in assay [1], the binding result is listed as “binds”.

These data come from US20190119407A1 (Amgen, published 2019).
